One experiment deals with T1, PVRL2 (human, UniProt Q92692 32-360, limits assumed).
T1 construct: also called PVLR2; CD112
T1 sequence (looked up): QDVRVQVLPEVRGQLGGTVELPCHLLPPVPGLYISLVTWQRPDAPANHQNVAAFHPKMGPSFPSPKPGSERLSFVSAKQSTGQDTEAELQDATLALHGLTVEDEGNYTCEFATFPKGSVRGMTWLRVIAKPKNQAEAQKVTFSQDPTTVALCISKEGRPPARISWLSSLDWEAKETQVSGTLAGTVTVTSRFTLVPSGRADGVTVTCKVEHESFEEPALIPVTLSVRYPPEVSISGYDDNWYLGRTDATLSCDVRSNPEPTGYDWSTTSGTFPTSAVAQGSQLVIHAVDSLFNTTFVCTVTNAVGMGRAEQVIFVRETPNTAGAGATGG
The experiment can be described thus: not described at this place.

Another experiment deals with T2, PVR (UniProt P15151 21-343, limits assumed).
T2 construct: also called poliovirus receptor; CD155
T2 sequence (looked up): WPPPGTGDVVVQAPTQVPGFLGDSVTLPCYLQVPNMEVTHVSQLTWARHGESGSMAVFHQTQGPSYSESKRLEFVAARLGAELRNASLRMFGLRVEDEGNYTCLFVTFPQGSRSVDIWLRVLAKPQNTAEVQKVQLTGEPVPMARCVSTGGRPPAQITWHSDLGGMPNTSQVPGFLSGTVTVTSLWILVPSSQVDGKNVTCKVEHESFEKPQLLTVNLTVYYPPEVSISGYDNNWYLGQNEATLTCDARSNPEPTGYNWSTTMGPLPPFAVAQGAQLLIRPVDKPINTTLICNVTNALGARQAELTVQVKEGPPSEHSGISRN
Nature of the experiment: not described at this place.

B1: PVRIG (receptor, human, UniProt Q6DKI7 41-171, looked up)
chain: TPEVWVQVRMEATELSSFTIRCGFLGSGSISLVTVSWGGPNGAGGTTLAVLHPERGIRQWAPARQARWETQSSISLILEGSGASSPCANTTFCCKFASFPEGSWEACGSLPPSSDPGLSAPPTPAPILRAD
notes: also called CD112R; Human Poliovirus Receptor Related Immunoglobulin Domain Containing Protein
Regarding B1, in the experiment with PVRL2, the binding result is given as “binds”.

B2: TIGIT (receptor, human, UniProt Q495A1 22-141, looked up)
chain: MMTGTIETTGNISAEKGGSIILQCHLSSTTAQVTQVNWEQQDQLLAICNADLGWHISPSFKDRVAPGPGLGLTLQSLTVNDTGEYFCIYHTYPDGTYTGRIFLEVLESSVAEHGARFQIP
notes: also called human TIGIT
As to B2, in the experiment with PVR, the binding result is given as “binds”.
